Reference: US20090324700A1, “METHODS AND COMPOSITIONS FOR THE INHIBITION OF CATHEPSINS” (priority 2003, published 2009)

Assays:
[1] = target: T1, human cathepsin H (Homo sapiens, UniProt P09668); assay: Protease specificity of Spi2A: cathepsin H; assay type: biochemical; conditions: protease 20 nM, Spi2A 200 nM, 1 h at 37° C; FIG. 6B
T1 construct: purchased Calbiochem or Athens Research and Technology
T1 sequence (P09668 98-335): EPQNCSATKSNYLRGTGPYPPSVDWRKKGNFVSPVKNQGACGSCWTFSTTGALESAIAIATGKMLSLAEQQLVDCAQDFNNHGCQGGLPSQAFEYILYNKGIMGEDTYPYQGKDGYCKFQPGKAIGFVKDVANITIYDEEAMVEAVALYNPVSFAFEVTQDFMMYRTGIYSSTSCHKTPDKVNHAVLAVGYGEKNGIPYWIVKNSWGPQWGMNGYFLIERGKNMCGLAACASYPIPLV
Experimental: (§1) Protease specificity of Spi2A. RelA^−/− MEFs were transduced with retrovirus encoding Spi2A with a C-terminal 3×FLAG epitope tag and Spi2A-3×FLAG purified using a method described previously (Cooley et al., 1998). Briefly, cells (3×10^9) were lysed and Spi2A-3×FLAG (75 μg) purified by batch Q-Fast Flow ion-exchange chromatography (Pharmacia Biotech) after elution at 160-220 mM NaCl followed by anti-FLAG antibody columns, performed according to manufacturer's instructions (Sigma-Aldrich). Spi2A-3×FLAG was dialysed into PBS and stored as aliquots at −80° C. until needed.
(§2) Proteases were purchases from the manufacturers (Calbiochem or Athens Research and Technology) except granzymes A and B which were purified as described (Hanna et al., 1993) and cathespin V and K, which were purified as described (Bromme et al., 1999; Linnevers et al., 1997). Proteases (20 nM) were incubated in the appropriate assay buffer with Spi2A at 200 nM (at least 10-fold excess of inhibitor to maintain pseudo-first order conditions) for 1 h at 37° C. Control samples included only the enzyme, without the inhibitor. At the end of 1 h protease activity was assayed. […] Substrate hydrolysis was measured in a fluorescence microtiter plate reader (Spectramax Gemini XS, Molecular Devices). Percentage inhibition was calculated from the residual enzyme activity compared to no Spi2A controls. […]

[2] = target: T2, caspase 3 (Homo sapiens, UniProt P42574); assay: Protease specificity of Spi2A: caspase 3; assay type: biochemical; conditions: FIG. 6B
T2 construct: purchased Calbiochem or Athens Research and Technology
T2 sequence (P42574 29-175 limits assumed): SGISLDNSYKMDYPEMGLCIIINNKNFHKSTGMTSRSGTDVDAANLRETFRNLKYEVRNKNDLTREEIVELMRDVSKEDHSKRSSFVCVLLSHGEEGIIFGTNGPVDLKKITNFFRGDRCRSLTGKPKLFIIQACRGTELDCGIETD
T2 sequence (P42574 176-277 limits assumed): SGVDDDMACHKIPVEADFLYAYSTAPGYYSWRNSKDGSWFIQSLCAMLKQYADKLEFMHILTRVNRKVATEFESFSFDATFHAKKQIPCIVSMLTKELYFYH
Experimental: as §1, §2

[3] = tested on: caspase-8, 9 and 3, and Bid; assay: Death effector assays: caspase and Bid activation (western blots, enzyme assays), RelA^−/− MEFs; assay type: cell-based, mouse; conditions: TNF-α 0.2 ng/ml, CHX 0.1 μg/ml; FIG. 5A, 5B
Experimental: Death effector assays. Death effector pathways were induced in […] MEFs by treatment TNF-α (0.2 ng/ml) and CHX (0.1 μg/ml). Assays for executioner proteases (caspases and cathepsin B) were performed on crude cytoplasmic extracts (Stegh et al., 2000). Briefly, MEFs (10^6) were lysed in 10 mM Tris-Cl, pH 7.5, 100 mM NaCl, 1 mM EDTA, 0.01% Triton X-100 (50 μl) for 30 min on ice then centrifuged at 15,000 g for 30 min at 4° C. and the supernatant recovered. Protein concentration was determined by Lowry assay (DC-protein assay kit, Biorad). […]
Colorimetric assays for capases were performed in reaction buffer (50 mM HEPES, pH 7.4, 100 mM NaCl, 10 mM DTT, 1 mM EDTA, 10% glycerol, 0.1% CHAPS) at 37° C. on crude cytoplasmic extracts using p-Nitoaniline (pNA)-labeled substrates (Calbiochem) specific for caspases 3 and 7 (Ac-DEVD-pNA), caspase 8 (Ac-IETD-pNA), caspase 9 (Ac-LEHD-pNA), each at 0.2 mM. Specific activity was determined by subtracting the apparent activity detected after 1 h pre-incubation of extract with the pan-caspase inhibitor Z-VAD.fmk at 50 μM (ICN Biomedicals Inc), then normalizing for the amount of protein. […] Specific activity was determined by subtracting the apparent activity detected after 30 min pre-incubation of extract at 37° C. with the cathespin B inhibitor CA-074 Me at 30 μM (Peptide Institute) then normalizing for the amount of protein.

B1: Spi2A: murine Spi2A polypeptide, SEQ ID NO:2; purified as C-terminal 3×FLAG protein or expressed from MIGR1 retrovirus in cells and bone-marrow chimeras (protein, listed as Mus musculus)
chain: MAGVSPAVFGCPDVTLGRNTAVREVQENVTSVDSLTLVSSNTDFAFSLYRKLVLKNPDENVVFSPFSICTALALLSLGAKSNTLKEILEGLKFNLTETPEPDIHQGFRYLLDLLSQPGNQVQISTGSALFIEKHLQILAEFKEKARALYQAEAFTADFQQPLKATKLINDYVSNHTQGKIKELISGLKESTLMVLVNYIYFKGKWKNPFDPNDTFKSEFYLDEKRSVIVSMMKTGYLTTPYFRDEELSCTVVELKYTGNASAMFILPDQGRMQQVEASLQPETLRKWKNSLKPRMIHELRLPKFSISTDYSLEHILPELGIREVFSTHADLSAITGTKDLRVSQVVHKAVLDVAEKGTEAAAATGMAGVGCCAVFDFLEIFFNRPFLMIISDTKAHIALFMAKVTNPERSTNFPNGEGASSQRLESKRLCFGDPLCLIGQ
modifications: C-terminal 3xFLAG tag
notes: purified as C-terminal 3×FLAG protein or expressed from MIGR1 retrovirus in cells and bone-marrow chimeras
With B1 the “Inhibition of protease by Spi2A (percentage inhibition)” value [1] was “extended to all of the lysosomal, papain-like proteases that were examined”, the “Inhibition of protease by Spi2A (percentage inhibition)” value [2] was “did not extend to any of the caspases tested” and the “Activation of apical and executioner caspases and Bid” value [3] was “suppressed”.
